Key:
[1] = tested on: binding of aPLs to immobilised native antigen; details: aPLs from patients with pregnancy loss and with thrombosis; Ioannou et al. 2007; cited from earlier work
[2] = tested on: APS IgG-induced femoral vein thrombus formation; assay: In vivo mouse blood clot model (blood vessel pinch model); design: species or system C57BL/6 mice; details: recombinant wild-type DI 40 μg intraperitoneally at 0 h and 48 h; 500 μg APS IgG; femoral vein pinch at 72 h; FIG. 10
Procedure: In vivo analysis of inhibition of thrombus formation by DI was carried out in a similar manner to those described within Ioannou et al., 2009, Journal of Thrombosis and Haemostasis, 7: 833-842, In vivo inhibition of antiphospholipid antibody-induced pathogenicity utilizing the antigenic target peptide domain I of beta2-glycoprotein I: proof of concept.
C57BL/6 mice (The Jackson Laboratory, Bar Harbor, Me., USA) were used for these studies.
NHS IgG and APS IgG mean protein G purified antibody obtained from Normal Healthy Subjects or APS patients respectively.
At time 0 h, 2 control groups were untreated, whereas 3 groups of mice were injected intraperitoneally with either recombinant wild-type DI (40 μg), PEGylated wild-type DI (20 μg) or PEG alone, in phosphate-buffered saline (PBS). After 60 min, 4 groups of mice were then treated intraperitoneally with 500 μg of APS IgG, while 1 group received 500 μg of NHS IgG, both in PBS. Both of these treatments were repeated at 48 h and 49 h respectively. The APS IgG dose was the minimal amount of APS IgG antibody required to increase thrombus size beyond two standard deviations (SDs) of the mean size induced by control NHS IgG post-injury. The APS IgG/DI molar ratios were 2.3:1, 1.15:1. […] A pinch stimulus was applied and the thrombus formation was visualised using a transilluminator and measured electronically. […]

[3] = tested on: aPL-induced venous thrombosis formation; details: mouse model of APS; Ioannou et al. 2009; cited from earlier work
[4] = tested on: IgA binding to immobilised β2GPI; assay: Competitive inhibition ELISA for IgA binding to β2GPI; design: species or system human; details: FIG. 9
Procedure: (§1) Competitive inhibition ELISA was carried out to test the ability of recombinant DI to inhibit binding of purified IgG from patients with APS to immobilised β2GPI. The assay was adapted from the standard β2GPI ELISA published by Ioannou et al., (BMC biotechnology 2006, 6:8) with the following amendments: the inhibitors were pre-incubated at concentrations ranging from 0 mg/ml to 200 μg/ml rather than 0 to 30 μM. Briefly, the test was carried out to test the ability of recombinant DI to inhibit binding of purified IgG from patients with APS to β2GPI coated on a plate. Recombinant DI was pre-incubated with patient serum prior to addition on the ELISA plate coated with β2GPI. Bound patient IgG was detected with an anti-human IgG HRP secondary antibody. Each sample was tested in duplicate.
Assays were carried out using identical methodology to Example 6 with the following alteration; an anti-human IgA secondary conjugated to HRP was used rather than an anti-human IgG secondary antibody.

[5] = tested on: purified IgG from patients with APS in normal human plasma (lupus anticoagulant effect); assay: LA (Lupus Anticoagulant) dilute Russel Viper Venom (dRVT-plus) coagulometer assay; type: biochemical; details: 500 μg/ml antibody and 25 μg/ml DI; IgG from four APS patients; FIGS. 8A-8D
Procedure: LA (Lupus Anticoagulant) Dilute Russel Viper Venom (dRVT-plus) Assay:
Assay reagents were used as described in manufacturer's (Haematex) instructions.
This assay reproduces the “lupus anticoagulant” (LA) effect, a test in which antibodies from serum of patients with APS cause a measurable prolongation of clotting time under specific conditions in vitro. Purified IgG from four patients with APS (shown as FIGS. 8A-8D) was pre-incubated with the DI constructs at a molar ratio of ˜1:1 (500 μg/ml antibody and 25 μg/ml DI) before being added to normal human plasma either with or without excess phospholipid—which prevents the anticoagulant effect of the IgG. The results are expressed as ratio of clotting time in absence to that in the presence of excess phospholipid. The higher the ratio, the greater the biological effect exerted by the IgG-APS.
Plasma was thawed on ice, meanwhile the Coagulometer (CA-50, Sysmex) was allowed to warm and reagents were prepared.
Patient antibodies were purified using Protein G IgG purification kit (Pierce), as described by manufacturer's instructions. IgA antibodies are purified using Jacalin beads (Pierce), as per manufacturer's instructions. […]
Plasma was dispensed into glass vials (200 μl×2) and reagents, either low [phospholipid] […] When the clot reached 50% the timing was stopped and recorded. […]

[6] = tested on: binding of purified IgG from patients with APS to immobilised β2GPI; assay: Competitive inhibition ELISA (IgG); design: species or system human; details: 175 μg/ml of test protein
Procedure: as §1
Competitive inhibition data is generally expressed as retained binding of the antibody to the antigen on the plate in the presence of the inhibitor protein (DI-PEG or DI). […] Activities of PEGylated or non-PEGylated DI are given based on % inhibition. FIGS. 7A-7F show % inhibition data for pegylated and non-pegylated DI constructs.

B1: wild-type DI: recombinant wild-type domain I of human β2GPI, SEQ ID NO: 2, approximately 7 kDa, unconjugated (protein, listed as Homo sapiens)
chain: GRTCPKPDDLPFSTVVPLKTFYEPGEEITYSCKPGYVSRGGMRKFICPLTGLWPINTLKCTPR
modifications: ends and bridges not checked
In the case of B1, the “inhibition of binding of aPLs to immobilised native antigen” value [1] is listed as “inhibit the binding of aPLs”, the “inhibition of thrombus formation (clot size)” value [2] is listed as “prevented the formation of large blood clots” and the “inhibition of in vivo aPL-induced venous thrombosis formation” value [3] is listed as “inhibit in vivo aPL-induced venous thrombosis formation”. For the same molecule, the “inhibition of IgA binding to β2GPI” value [4] was “inhibits IgA binding to β2GPI” and the “inhibition of lupus anticoagulant effect (ratio of clotting time in absence to presence of excess phospholipid)” value [5] was “inhibit this biological effect of IgG APS”.

B2: DI(D8S/D9G): variant of domain I of human β2GP1, SEQ ID NO: 3, unconjugated (protein)
chain: GRTCPKPSGLPFSTVVPLKTFYEPGEEITYSCKPGYVSRGGMRKFICPLTGLWPINTLKCTPR
modifications: ends and bridges not checked
For B2, the “inhibition of binding of aPLs to immobilised native antigen” value [1] is given as “inhibition is greater” and the “inhibition of in vivo aPL-induced venous thrombosis formation” value [3] is given as “inhibit in vivo aPL-induced venous thrombosis formation”.

B3: WT DI-PEG (20 kDa): wild-type domain I β2GPI (SEQ ID NO: 2) mono-PEGylated across a disulfide bridge with 20 kDa PEG reagent 1 (conjugate, listed as Homo sapiens)
chain: GRTCPKPDDLPFSTVVPLKTFYEPGEEITYSCKPGYVSRGGMRKFICPLTGLWPINTLKCTPR
modifications: not fully specified (bridges); ends and bridges not checked; also: mono-PEGylated across a disulfide bridge, Cys places not given here
In the case of B3, the “Retained Activity of WT DI-PEG (20 kDa) Vs WT DI (%)” value (“Retained Activity of WT DI-PEG … (%)” below) ([6]; Patient 1 IgG) is reported as 98.5%, the “Retained Activity of WT DI-PEG … (%)” value ([6]; Patient 2 IgG) is reported as 74.9% and the “Retained Activity of WT DI-PEG … (%)” value ([6]; Patient 3 IgG) is reported as 88.3%. The “Retained Activity of WT DI-PEG … (%)” value ([6]; Patient 4 IgG) was 91.5%, the “Retained Activity of WT DI-PEG … (%)” value ([6]; Patient 5 IgG) was 70% and the “Retained Activity of WT DI-PEG … (%)” value ([6]; Patient 6 IgG) was 91.9%.

B4: D8S, D9G mutant-PEG (20 kDa): D8S,D9G variant domain I (SEQ ID NO: 3) mono-PEGylated with 20 kDa PEG reagent (conjugate)
chain: GRTCPKPSGLPFSTVVPLKTFYEPGEEITYSCKPGYVSRGGMRKFICPLTGLWPINTLKCTPR
modifications: ends and bridges not checked; also: mono-PEGylated with 20 kDa PEG reagent, site not given here
For B4, the “Retained Activity of D8S, D9G mutant-PEG (20 kDa) Vs D8S, D9G (%)” value (“Retained Activity of D8S … (%)” for short) ([6]; Patient 1 IgG) was 87.8%, the “Retained Activity of D8S … (%)” value ([6]; Patient 2 IgG) was 70.8% and the “Retained Activity of D8S … (%)” value ([6]; Patient 3 IgG) was 83.3%. For the same molecule, the “Retained Activity of D8S … (%)” value ([6]; Patient 4 IgG) was 100%, the “Retained Activity of D8S … (%)” value ([6]; Patient 5 IgG) was 64% and the “Retained Activity of D8S … (%)” value ([6]; Patient 6 IgG) was 100%.

— patent US10098960B2, “Polymer conjugate” (UCL Business PLC, priority 2015, dated 2018)
